Target: T1, CIB1 (cryptochrome-interacting basic-helix-loop-helix) fused with the GAL4 DNA-binding domain (Arabidopsis) (UniProt Q8GY61)
T1 sequence: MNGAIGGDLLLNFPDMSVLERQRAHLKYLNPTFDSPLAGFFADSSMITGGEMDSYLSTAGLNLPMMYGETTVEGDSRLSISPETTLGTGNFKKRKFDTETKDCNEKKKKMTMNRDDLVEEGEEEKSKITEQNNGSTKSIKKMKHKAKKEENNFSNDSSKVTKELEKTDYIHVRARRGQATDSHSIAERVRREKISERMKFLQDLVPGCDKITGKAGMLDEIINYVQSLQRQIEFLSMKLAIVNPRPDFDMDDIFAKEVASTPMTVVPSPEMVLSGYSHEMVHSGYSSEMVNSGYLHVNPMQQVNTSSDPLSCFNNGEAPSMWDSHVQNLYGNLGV

“CRY2 (cryptochrome 2) fused with the VP16 transcription activation domain (from UniProt Q96524 1-612) (natural protein)” was tested. Which amiR-D1 transcript (gene downstream of the UAS) by quantitative PCR in the transgenic alga, after blue light irradiation against before (red light culture) did it give?
The amiR-D1 transcript (gene downstream of the UAS) by quantitative PCR in the transgenic alga, after blue light irradiation against before (red light culture) was > 14 fold.

Source: PMC5678773
